B1: NIV-8 Fab (Fab, V domains shown)
VH: EVQLVESGGGVVQPGRSLRLSCAASGFKFSKFAMHWVRQAPGKGPEWVAVISYDGNQYHSADSVKGRFTISRDNSFNTLYLQMNSLGPEDTAVYYCARDGPDTSGYYANIYFDFWGQGTLVTVSS
VL: QSVLTQPPSVSGAPGQRVTISCTGSSSNIGAGYDVHWYQQLPGRAPKLLIFDNNNRPSGVPDRFSGSKSGTSASLAITGLQTEDEAYYYCQSYDNSLILAVFGGGTKVTVL
B2: NIV-10 Fab (Fab, V domains shown)
VH: EVQLVESGGGLVQPGGSLRLSCAASGFTFYSYWMTWVRQAPGKGLEWVANIKHDESESHYVDSVRGRFTISRDNAKNSVYLQMKGLRAEDTAVYYCARDGGYNILTAYYHAPSYWGQGTLVTVSS
VL: QSALTQPASVSGSPGQSITISCTGTSSDVGGYNFVSWYRQYPGKAPQLMIYDVSRRPSGDSDRFSGSKSGNTASLTISGLQAEDEAEYHCSSYTGRSPYVVFGGGTKVTVL
B3: NIV-11 Fab (Fab, V domains shown)
VH: QLVQSGPEVKKPGTSVKVSCKASGFTFYYSAVQWVRQARGQRLEWLGWMAVGSGKANYAQKFQERLTLTRDMSTSTAYMELSSLRSEDTAVYYCAAPNCTGGSCYDGFNLWGQGTVVTVSS
VL: EIVLTQSPGTLSLSPGDRAILSCRASQTVNSNYLAWYQQKPGQAPRLLIYGTSSRATGIPDRFSGSGSGTDFTLTISRLEPEDFAVYYCQQYGSSPWLFGQGTKVEIK
B4: NIV-13 Fab (Fab, V domains shown)
VH: EVQLLESGGGLVQPGGSLRLSCAASGFTFSRYALSWVRQAPGKGLEWVSAISGAAITTYYADSVKGRFTISRDDSRNTLFMQMDSLRAEDTAVYYCAKGDYYDSSGYLAEYFPHWGQGTLVTVSS
VL: SYELTQPPSVSVSPGQTARITCFADALPKQHAYWYQQKAGQAPVLVIFKDTERPSGIPKRFSGSRSGATVTLTISGVQAEDEADYYCQSTDISGVLFGGGTKLTVL

Each binder was assayed against SARS-CoV-2 spike receptor-binding domain, Delta variant (amino acids 331-529), biotinylated (SARS-CoV-2, Delta, L452R | T478K, biotin (RBD expression vector co-expressed with BirA-Flag, 100 μM biotin added)) (assay: BLI). Conditions: both partners purified.
B1 showed a Kd of 0.00475 nM, a koff of 1.28e-06 s⁻¹ and a kon of 269000 M⁻¹ s⁻¹. B2 showed a Kd of 0.00371 nM, a koff of 1.31e-06 s⁻¹ and a kon of 354000 M⁻¹ s⁻¹. Work on B3 yielded a Kd of 0.00478 nM, a koff of 5.08e-07 s⁻¹ and a kon of 106000 M⁻¹ s⁻¹. Work on B4 yielded a Kd of 0.0919 nM, a koff of 3.72e-05 s⁻¹ and a kon of 405000 M⁻¹ s⁻¹.

These binders were tested against SARS-CoV-2 spike receptor-binding domain, Omicron BA.1 variant (amino acids 331-529), biotinylated (SARS-CoV-2, Omicron BA.1, G339D | S371L | S373P | S375F | K417N | N440K | G446S | S477N | T478K | E484A | …, biotin (RBD expression vector co-expressed with BirA-Flag, 100 μM biotin added)) (assay: BLI). Conditions: both partners purified.
Binder B1 has a Kd of 24.7 nM, a koff of 0.00312 s⁻¹ and a kon of 126000 M⁻¹ s⁻¹. For B2, the Kd was 96.6 nM, the koff was 0.0124 s⁻¹ and the kon was 129000 M⁻¹ s⁻¹. Binder B3 has a Kd of 9.14 nM, a koff of 0.00335 s⁻¹ and a kon of 366000 M⁻¹ s⁻¹. B4 gave a Kd of 0.802 nM, a koff of 0.000248 s⁻¹ and a kon of 309000 M⁻¹ s⁻¹.

These binders were tested against SARS-CoV-2 spike receptor-binding domain, Omicron BA.2 variant (amino acids 331-529), biotinylated (SARS-CoV-2 Omicron BA.2, G504D | S371F | S375F | T376A | D405N | R408S | K417N | N440K | S477N | T478K | …, biotin (RBD expression vector co-expressed with BirA-Flag, 100 μM biotin added)) (assay: BLI). Conditions: both partners purified.
Work on B1 yielded a Kd of 20 nM, a koff of 0.00206 s⁻¹ and a kon of 103000 M⁻¹ s⁻¹. Work on B2 yielded a Kd of 76.1 nM, a koff of 0.0064 s⁻¹ and a kon of 84100 M⁻¹ s⁻¹. In the case of B3, the Kd is reported as 11 nM, the koff is reported as 0.00355 s⁻¹ and the kon is reported as 322000 M⁻¹ s⁻¹. For B4, the Kd was 1.49 nM, the koff was 0.000369 s⁻¹ and the kon was 247000 M⁻¹ s⁻¹.
